Sequences and labels used below:
B1: Refmab #1 (antibody, human IgG1, V domains shown)
VH: EVQLVQSGAEVKKPGSSVKVSCKASGYTITDSNIHWVRQAPGQSLEWIGYIYPYNGGTDYNQKFKNRATLTVDNPTNTAYMELSSLRSEDTAFYYCVNGNPWLAYWGQGTLVTVSS
VL: DIQLTQSPSTLSASVGDRVTITCRASESLDNYGIRFLTWFQQKPGKAPKLLMYAASNQGSGVPSRFSGSGSGTEFTLTISSLQPDDFATYYCQQTKEVPWSFGQGTKVEVK
notes: tested in IgG format; also called hP67.6
B2: Refmab #2 (antibody, human IgG1, V domains shown)
VH: QVQLVQSGAEVKKPGSSVKVSCKASGGTFSDYAISWVRQAPGQGLEWMGRIIPILGVADYAQKFQGRVTITADKSTRTAYMELSSLRSEDTAVYYCARNWADAFDIWGQGTMVTVSS
VL: DIQLTQSPSSLSASVGDRVTITCRASQGISSVLAWYQQKPGKAPKLLIYDASSLESGVPSRFSGSGSGTDFTLTISSLQPEDFATYYCQQFDSSITFGQGTKLEIK
notes: tested in IgG format
B3: Refmab #3 (antibody, human IgG1, V domains shown)
VH: QVQLVQSGAEVKKPGSSVKVSCKASGYTFTDYNMHWVRQAPGQGLEWIGYIYPYNGGTGYNQKFKSKATITADESTNTAYMELSSLRSEDTAVYYCARGRPAMDYWGQGTLVTVSS
VL: DIQMTQSPSSLSASVGDRVTITCRASESVDNYGISFMNWFQQKPGKAPKLLIYAASNQGSGVPSRFSGSGSGTDFTLTISSLQPDDFATYYCQQSKEVPWTFGQGTKVEIK
notes: tested in IgG format
B4: Refmab #4 (antibody, human IgG1, V domains shown)
VH: QVQLVQSGAEVKKPGESVKVSCKASGYTFTNYGMNWVKQAPGQGLEWMGWINTYTGEPTYADKFQGRVTMTTDTSTSTAYMEIRNLGGDDTAVYYCARWSWSDGYYVYFDYWGQGTSVTVSS
VL: DIVMTQSPDSLTVSLGERTTINCKSSQSVLDSSTNKNSLAWYQQKPGQPPKLLLSWASTRESGIPDRFSGSGSGTDFTLTIDSPQPEDSATYYCQQSAHFPITFGQGTRLEIK
notes: tested in IgG format
B5: Refmab #1 (antibody, human IgG1, V domains shown)
VH: B1 VH
VL: B1 VL
notes: Full-length MAb format, human IgG1; also called hP67.6

Consider 5 molecules from US20260242735A1 (UNIVERSIT T BASEL, published 2026).

human CD33 P132S, sequence (P20138 18-364 P132S limits assumed): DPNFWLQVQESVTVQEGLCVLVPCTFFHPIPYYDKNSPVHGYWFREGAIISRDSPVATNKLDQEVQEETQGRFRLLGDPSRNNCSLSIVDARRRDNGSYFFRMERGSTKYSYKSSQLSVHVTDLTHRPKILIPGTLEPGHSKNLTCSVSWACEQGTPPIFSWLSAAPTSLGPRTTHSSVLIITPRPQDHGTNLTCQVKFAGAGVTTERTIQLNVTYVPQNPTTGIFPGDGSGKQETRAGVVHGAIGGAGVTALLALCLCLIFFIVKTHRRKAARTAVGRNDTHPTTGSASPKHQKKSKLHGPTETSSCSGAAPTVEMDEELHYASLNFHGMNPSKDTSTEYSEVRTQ
human CD33 P132D, sequence (P20138 18-364 P132D limits assumed): as the sequence (P20138 18-364 P132S limits assumed) above, with S115D counted along it
human CD33 S131D, sequence (P20138 18-364 S131D limits assumed): as the sequence (P20138 18-364 P132S limits assumed) above, with S114D, S115P counted along it
human CD33 S131N, sequence (P20138 18-364 S131N limits assumed): as the sequence (P20138 18-364 P132S limits assumed) above, with S114N, S115P counted along it
human CD33 P132F, sequence (P20138 18-364 P132F limits assumed): as the sequence (P20138 18-364 P132S limits assumed) above, with S115F counted along it
human CD33 L134R, sequence (P20138 18-364 L134R limits assumed): as the sequence (P20138 18-364 P132S limits assumed) above, with S115P, L117R counted along it
human CD33 L134Q, sequence (P20138 18-364 L134Q limits assumed): as the sequence (P20138 18-364 P132S limits assumed) above, with S115P, L117Q counted along it
human CD33 P132Q, sequence (P20138 18-364 P132Q limits assumed): as the sequence (P20138 18-364 P132S limits assumed) above, with S115Q counted along it
human CD33 P132Y, sequence (P20138 18-364 P132Y limits assumed): as the sequence (P20138 18-364 P132S limits assumed) above, with S115Y counted along it

One test has as its target human CD33 S131N (human, UniProt P20138 18-364). Kind of test: flow cytometry, HEK293-T, IgG.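 Also: CD33 point mutants transiently expressed, antibody binding measured by fluorescence in duplicate, background subtracted and scaled to binding on wild-type CD33 as 100%.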 On the technique in general: In flow cytometry, cells or beads pass a laser one at a time.
Description: (§1) An alanine scan on human CD33 was performed to the determine the residues on CD33 that are involved in binding to the antibodies investigated. […] Briefly, a mutation library of CD33 was created by high-throughput, site-directed mutagenesis. Each residue was individually mutated to alanine, with alanine codons mutated to serine. The mutant library was arrayed in 384-well microplates and transiently transfected into HEK293-T. Following transfection, cells were incubated with the indicated antibodies (IgG or Fab) at concentrations pre-determined using an independent immunofluorescence titration curve on wild type CD33. […] Binding of each antibody to each mutant clone was determined in duplicates. For each point, background fluorescence was subtracted from the raw data, which were then normalized to antibody reactivity with wild type CD33.
(§2) Antibodies were screened for binding to the human CD33 variants in IgG format. […] For each mutation, background fluorescence was subtracted from the raw data, which were then normalized to antibody reactivity with wild-type CD33.
B1: the “Mean % WT Binding” value amounted to 94.6 % WT binding.
Same read-out and setting: for B2 the value was 126 % WT binding.
Turning to B3, the “Mean % WT Binding” value stood at 118 % WT binding.
With B4, the “Mean % WT Binding” value was found to be 105 % WT binding.

A further test deals with human CD33 S131H (human, UniProt P20138 18-364). Kind of test: flow cytometry, HEK293-T, IgG.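 Also: CD33 point mutants transiently expressed, antibody binding measured by fluorescence in duplicate, background subtracted and scaled to binding on wild-type CD33 as 100%.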
human CD33 S131H, sequence (P20138 18-364 S131H limits assumed): as the sequence (P20138 18-364 P132S limits assumed) above, with S114H, S115P counted along it
Description: as §1, §2
Regarding B1, the “Mean % WT Binding” value stood at 96.4 % WT binding.
With B2, the “Mean % WT Binding” value was 112 % WT binding.
The same measure, in the same setting: under B3 stands 100 % WT binding; under B4, 103 % WT binding.

A further test addresses human CD33 S131D (human, UniProt P20138 18-364). Kind of test: flow cytometry, HEK293-T, IgG.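 Also: CD33 point mutants transiently expressed, antibody binding measured by fluorescence in duplicate, background subtracted and scaled to binding on wild-type CD33 as 100%.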
Description: as §1, §2
In the case of B1, the “Mean % WT Binding” value was 91.9 % WT binding.
Same read-out and setting: under B2 stands 101 % WT binding.
Regarding B3, the “Mean % WT Binding” value was determined as 93.9 % WT binding.
The same measure, in the same setting: for B4 the value was 97.5 % WT binding.

The target in a further test is human CD33 S131K (human, UniProt P20138 18-364). Kind of test: flow cytometry, HEK293-T, IgG.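 Also: CD33 point mutants transiently expressed, antibody binding measured by fluorescence in duplicate, background subtracted and scaled to binding on wild-type CD33 as 100%.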
human CD33 S131K, sequence (P20138 18-364 S131K limits assumed): as the sequence (P20138 18-364 P132S limits assumed) above, with S114K, S115P counted along it
Description: as §1, §2
As to B1, the “Mean % WT Binding” value was found to be 102 % WT binding.
Regarding B2, the “Mean % WT Binding” value turned out to be 91.2 % WT binding.
Take B3: the “Mean % WT Binding” value was determined as 87.7 % WT binding.
Same read-out and setting: under B4 stands 100 % WT binding.

The target in a further test is human CD33 S131I (human, UniProt P20138 18-364). Nature of the test: flow cytometry, HEK293-T, IgG.
human CD33 S131I, sequence (P20138 18-364 S131I limits assumed): as the sequence (P20138 18-364 P132S limits assumed) above, with S114I, S115P counted along it
Description: as §1, §2
Regarding B1, the “Mean % WT Binding” value was 96.6 % WT binding.
Turning to B2, the “Mean % WT Binding” value came out at 110 % WT binding.
Same read-out and setting: under B3 stands 95.7 % WT binding; under B4, 99.6 % WT binding.

For the next test, the target named is human CD33 S131F (human, UniProt P20138 18-364). Nature of the test: flow cytometry, HEK293-T, IgG.
human CD33 S131F, sequence (P20138 18-364 S131F limits assumed): as the sequence (P20138 18-364 P132S limits assumed) above, with S114F, S115P counted along it
Description: as §1, §2
As to B1, the “Mean % WT Binding” value was determined as 95.6 % WT binding.
For the molecule B2, the “Mean % WT Binding” value turned out to be 111 % WT binding.
B3: the “Mean % WT Binding” value was 103 % WT binding.
With B4, the “Mean % WT Binding” value was determined as 91.8 % WT binding.

For a further test, the target named is human CD33 S131Y (human, UniProt P20138 18-364). Nature of the test: flow cytometry, HEK293-T, IgG.
human CD33 S131Y, sequence (P20138 18-364 S131Y limits assumed): as the sequence (P20138 18-364 P132S limits assumed) above, with S114Y, S115P counted along it
Description: as §1, §2
Turning to B1, the “Mean % WT Binding” value is 97.7 % WT binding.
Same read-out and setting: for B2 the value was 98.5 % WT binding; for B3, 97.4 % WT binding; for B4, 85.7 % WT binding.

The target of another test is human CD33 S131M (human, UniProt P20138 18-364). Nature of the test: flow cytometry, HEK293-T, IgG.
human CD33 S131M, sequence (P20138 18-364 S131M limits assumed): as the sequence (P20138 18-364 P132S limits assumed) above, with S114M, S115P counted along it
Description: as §1, §2
In the case of B1, the “Mean % WT Binding” value amounted to 105 % WT binding.
Same read-out and setting: for B2 the value was 108 % WT binding.
Same read-out and setting: under B3 stands 91.9 % WT binding.
Same read-out and setting: for B4 the value was 97.6 % WT binding.

The target in another test is human CD33 S131W (human, UniProt P20138 18-364). Nature of the test: flow cytometry, HEK293-T, IgG.
human CD33 S131W, sequence (P20138 18-364 S131W limits assumed): as the sequence (P20138 18-364 P132S limits assumed) above, with S114W, S115P counted along it
Description: as §1, §2
With B1, the “Mean % WT Binding” value amounted to 97.6 % WT binding.
On the same count and under the same terms, for B2 the value was 92.4 % WT binding; for B3, 91.9 % WT binding; for B4, 87.5 % WT binding.

For the next test, the target named is human CD33 S131Q (human, UniProt P20138 18-364). Nature of the test: flow cytometry, HEK293-T, IgG.
human CD33 S131Q, sequence (P20138 18-364 S131Q limits assumed): as the sequence (P20138 18-364 P132S limits assumed) above, with S114Q, S115P counted along it
Description: as §1, §2
In the case of B1, the “Mean % WT Binding” value amounted to 101 % WT binding.
Still for that read-out and setting: under B2 stands 110 % WT binding; under B3, 93.9 % WT binding; under B4, 97.3 % WT binding.

Another test addresses human CD33 P132S (human, UniProt P20138 18-364). Nature of the test: flow cytometry, HEK293-T, IgG.
Description: as §1, §2
With B1, the “Mean % WT Binding” value came to 92.9 % WT binding.
Still for that read-out and setting: for B2 the value was 110 % WT binding; for B3, 95.8 % WT binding; for B4, 102 % WT binding.

The target in another test is human CD33 P132T (human, UniProt P20138 18-364). Nature of the test: flow cytometry, HEK293-T, IgG.
human CD33 P132T, sequence (P20138 18-364 P132T limits assumed): as the sequence (P20138 18-364 P132S limits assumed) above, with S115T counted along it
Description: as §1, §2
As to B1, the “Mean % WT Binding” value is 98.9 % WT binding.
The same measure, in the same setting: for B2 the value was 103 % WT binding; for B3, 106 % WT binding.
For the molecule B4, the “Mean % WT Binding” value stood at 99.8 % WT binding.

A further test deals with human CD33 P132V (human, UniProt P20138 18-364). Kind of test: flow cytometry, HEK293-T, IgG.
human CD33 P132V, sequence (P20138 18-364 P132V limits assumed): as the sequence (P20138 18-364 P132S limits assumed) above, with S115V counted along it
Description: as §1, §2
In the case of B1, the “Mean % WT Binding” value came to 105 % WT binding.
Still for that read-out and setting: for B2 the value was 102 % WT binding; for B3, 86.6 % WT binding; for B4, 94.7 % WT binding.

For the next test, the target named is human CD33 P132L (human, UniProt P20138 18-364). Nature of the test: flow cytometry, HEK293-T, IgG.
human CD33 P132L, sequence (P20138 18-364 P132L limits assumed): as the sequence (P20138 18-364 P132S limits assumed) above, with S115L counted along it
Description: as §1, §2
For the molecule B1, the “Mean % WT Binding” value is 94.6 % WT binding.
As to B2, the “Mean % WT Binding” value turned out to be 116 % WT binding.
On the same count and under the same terms, for B3 the value was 94.4 % WT binding; for B4, 96.7 % WT binding.

The next test has as its target human CD33 P132F (human, UniProt P20138 18-364). Kind of test: flow cytometry, HEK293-T, IgG.
Description: as §1, §2
For B1, the “Mean % WT Binding” value worked out at 91.3 % WT binding.
On the same count and under the same terms, under B2 stands 65.1 % WT binding; under B3, 79.4 % WT binding; under B4, 71.3 % WT binding.

The next test concerns the target human CD33 P132Y (human, UniProt P20138 18-364). Nature of the test: flow cytometry, HEK293-T, IgG.
Description: as §1, §2
B1: the “Mean % WT Binding” value was 93.5 % WT binding.
The same measure, in the same setting: under B2 stands 65 % WT binding; under B3, 85.2 % WT binding; under B4, 78.6 % WT binding.

The target of another test is human CD33 P132H (human, UniProt P20138 18-364). Nature of the test: flow cytometry, HEK293-T, IgG.
human CD33 P132H, sequence (P20138 18-364 P132H limits assumed): as the sequence (P20138 18-364 P132S limits assumed) above, with S115H counted along it
Description: as §1, §2
In the case of B1, the “Mean % WT Binding” value was determined as 84.9 % WT binding.
For the molecule B2, the “Mean % WT Binding” value was 101 % WT binding.
Consider B3, for which the “Mean % WT Binding” value is 87.8 % WT binding.
Still for that read-out and setting: under B4 stands 92.7 % WT binding.

A further test concerns the target human CD33 P132D (human, UniProt P20138 18-364). Nature of the test: flow cytometry, HEK293-T, IgG.
Description: as §1, §2
In the case of B1, the “Mean % WT Binding” value came out at 89.9 % WT binding.
Same read-out and setting: under B2 stands 73.6 % WT binding; under B3, 92.7 % WT binding.
For B4, the “Mean % WT Binding” value is 99.6 % WT binding.

For the next test, the target named is human CD33 P132K (human, UniProt P20138 18-364). Kind of test: flow cytometry, HEK293-T, IgG.
human CD33 P132K, sequence (P20138 18-364 P132K limits assumed): as the sequence (P20138 18-364 P132S limits assumed) above, with S115K counted along it
Description: as §1, §2
In the case of B1, the “Mean % WT Binding” value turned out to be 99.6 % WT binding.
In the case of B2, the “Mean % WT Binding” value was found to be 119 % WT binding.
Same read-out and setting: for B3 the value was 65 % WT binding; for B4, 102 % WT binding.

The target of another test is human CD33 P132N (human, UniProt P20138 18-364). Kind of test: flow cytometry, HEK293-T, IgG.
human CD33 P132N, sequence (P20138 18-364 P132N limits assumed): as the sequence (P20138 18-364 P132S limits assumed) above, with S115N counted along it
Description: as §1, §2
As to B1, the “Mean % WT Binding” value was 91.4 % WT binding.
B2: the “Mean % WT Binding” value was 100 % WT binding.
As to B3, the “Mean % WT Binding” value was 94.5 % WT binding.
The same measure, in the same setting: for B4 the value was 100 % WT binding.

The next test concerns the target human CD33 P132Q (human, UniProt P20138 18-364). Nature of the test: flow cytometry, HEK293-T, IgG.
Description: as §1, §2
For B1, the “Mean % WT Binding” value is 91.7 % WT binding.
Same read-out and setting: under B2 stands 83.4 % WT binding; under B3, 80.1 % WT binding.
Same read-out and setting: for B4 the value was 86.9 % WT binding.

The target in another test is human CD33 L134T (human, UniProt P20138 18-364). Nature of the test: flow cytometry, HEK293-T, IgG.
human CD33 L134T, sequence (P20138 18-364 L134T limits assumed): as the sequence (P20138 18-364 P132S limits assumed) above, with S115P, L117T counted along it
Description: as §1, §2
Regarding B1, the “Mean % WT Binding” value was determined as 91.6 % WT binding.
On the same count and under the same terms, under B2 stands 99.2 % WT binding; under B3, 101 % WT binding; under B4, 90.3 % WT binding.

The next test deals with human CD33 L134I (human, UniProt P20138 18-364). Kind of test: flow cytometry, HEK293-T, IgG.
human CD33 L134I, sequence (P20138 18-364 L134I limits assumed): as the sequence (P20138 18-364 P132S limits assumed) above, with S115P, L117I counted along it
Description: as §1, §2
As for B1, the “Mean % WT Binding” value worked out at 106 % WT binding.
B2: the “Mean % WT Binding” value turned out to be 105 % WT binding.
On the same count and under the same terms, under B3 stands 108 % WT binding; under B4, 94.4 % WT binding.

Another test has as its target human CD33 L134Q (human, UniProt P20138 18-364). Kind of test: flow cytometry, HEK293-T, IgG.
Description: as §1, §2
As for B1, the “Mean % WT Binding” value turned out to be 83 % WT binding.
On the same count and under the same terms, under B2 stands 77.4 % WT binding; under B3, 87.7 % WT binding.
In the case of B4, the “Mean % WT Binding” value was 86.8 % WT binding.

The next test has as its target human CD33 L134R (human, UniProt P20138 18-364). Nature of the test: flow cytometry, HEK293-T, IgG.
Description: as §1, §2
Take B1: the “Mean % WT Binding” value was determined as 3.1 % WT binding.
Still for that read-out and setting: for B2 the value was 2.5 % WT binding; for B3, 1 % WT binding; for B4, 2.4 % WT binding.

The target in the next test is human CD33 L134F (human, UniProt P20138 18-364). Kind of test: flow cytometry, HEK293-T, IgG.
human CD33 L134F, sequence (P20138 18-364 L134F limits assumed): as the sequence (P20138 18-364 P132S limits assumed) above, with S115P, L117F counted along it
Description: as §1, §2
On to B1, for which the “Mean % WT Binding” value was 92.5 % WT binding.
The same measure, in the same setting: under B2 stands 106 % WT binding; under B3, 104 % WT binding; under B4, 90.6 % WT binding.

In a further test the target is human CD33 L134M (human, UniProt P20138 18-364). Nature of the test: flow cytometry, HEK293-T, IgG.
human CD33 L134M, sequence (P20138 18-364 L134M limits assumed): as the sequence (P20138 18-364 P132S limits assumed) above, with S115P, L117M counted along it
Description: as §1, §2
For the molecule B1, the “Mean % WT Binding” value was 81.2 % WT binding.
On to B2, for which the “Mean % WT Binding” value came out at 105 % WT binding.
Still for that read-out and setting: under B3 stands 106 % WT binding; under B4, 99 % WT binding.

The target in another test is human CD33 S131T (human, UniProt P20138 18-364). Nature of the test: flow cytometry, HEK293-T, IgG.
human CD33 S131T, sequence (P20138 18-364 S131T limits assumed): as the sequence (P20138 18-364 P132S limits assumed) above, with S114T, S115P counted along it
Description: as §1, §2
B1: the “Mean % WT Binding” value was 97.2 % WT binding.
For the molecule B2, the “Mean % WT Binding” value stood at 111 % WT binding.
The same measure, in the same setting: for B3 the value was 116 % WT binding; for B4, 102 % WT binding.

In another test the target is T1, human wild-type CD33 (human, UniProt P20138 18-364).
T1 construct: also called SIGLEC3; P67
T1 sequence (P20138 18-364 limits assumed): as the sequence (P20138 18-364 P132S limits assumed) above, with S115P counted along it
Nature of the test: flow cytometry, IgG at 0.25 ug/ml on HEK293-T cells expressing CD33 against vector alone.
Description: Binding of the antibodies to the transfected cells and the optimal assay conditions were evaluated in 384-well format. Detection of cellular expression was measured via high-throughput flow cytometry. Serial dilutions of each antibody were tested for immunoreactivity against cells expressing CD33 or vector alone. The optimal screening concentration for each antibody was determined based on the raw signal values and signal-to-background calculations. Each point represents the mean of four replicates.
With B5, the “Signal:Background” value is 44 signal:background ratio.
